Protein stability index data for 94 variants are collected here from the supplement of paper PMC10567573.

To fix the notation:
B1: CPXM2 (parent)
chain: TASTKNCMVGYDMGATRCDFTLSK
B2: MLL5 (parent)
chain: HDDGYMICCDKCSVWQHIDCMGID
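Note: lentivirally expressed fusions sorted by FACS into six bins by GFP to DsRed ratio, PSI derived from sequencing read proportions per bin multiplied by bin number.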

The variants in one data set derive from B1. Kind of data set: protein stability index of a GFP-peptide fusion (GPS, HEK-293T) (PSI 1-6); higher = more stable. Particulars: c terminus: a fixed tail appended.
Take TISTKNCMVGYDMGATRCDFTLSK [A2I]: the protein stability index is 1.8.
With TNSTKNCMVGYDMGATRCDFTLSK [A2N], the protein stability index is 3.16.
Consider TVSTKNCMVGYDMGATRCDFTLSK [A2V], for which the protein stability index is 2.21.
Regarding TWSTKNCMVGYDMGATRCDFTLSK [A2W], the protein stability index worked out at 1.73.
Same read-out and setting: as for TKSTKNCMVGYDMGATRCDFTLSK [A2K], the figure is 2.04.
In the case of TGSTKNCMVGYDMGATRCDFTLSK [A2G], the protein stability index is 2.91.
For the variant TYSTKNCMVGYDMGATRCDFTLSK [A2Y], the protein stability index came out at 2.31.
For TTSTKNCMVGYDMGATRCDFTLSK [A2T], the protein stability index worked out at 2.06.
Turning to TQSTKNCMVGYDMGATRCDFTLSK [A2Q], the protein stability index amounted to 2.94.
Same read-out and setting: as for TPSTKNCMVGYDMGATRCDFTLSK [A2P], the figure is 3.08; as for TDSTKNCMVGYDMGATRCDFTLSK [A2D], 3.75.
The same measure, in the same setting: the figure for THSTKNCMVGYDMGATRCDFTLSK [A2H] is 2.26.
On the same count and under the same terms, the figure for TFSTKNCMVGYDMGATRCDFTLSK [A2F] is 2.58; for TSSTKNCMVGYDMGATRCDFTLSK [A2S] it is 2.58.
As to TLSTKNCMVGYDMGATRCDFTLSK [A2L], the protein stability index was 1.99.
Turning to TMSTKNCMVGYDMGATRCDFTLSK [A2M], the protein stability index came to 2.41.
TCSTKNCMVGYDMGATRCDFTLSK [A2C]: the protein stability index was 1.64.
With TASTKNDMVGYDMGATRCDFTLSK [C7D], the protein stability index came out at 4.
With TASTKNSMVGYDMGATRCDFTLSK [C7S], the protein stability index is 3.77.
In the case of TASTKNPMVGYDMGATRCDFTLSK [C7P], the protein stability index was found to be 3.48.
Still for that read-out and setting: as for TASTKNYMVGYDMGATRCDFTLSK [C7Y], the figure is 2.71; as for TASTKNAMVGYDMGATRCDFTLSK [C7A], 3.74.
Still for that read-out and setting: the figure for TASTKNMMVGYDMGATRCDFTLSK [C7M] is 3.06; for TASTKNHMVGYDMGATRCDFTLSK [C7H] it is 3.48; for TASTKNVMVGYDMGATRCDFTLSK [C7V] it is 3.46.
As to TASTKNNMVGYDMGATRCDFTLSK [C7N], the protein stability index came to 3.84.
The same measure, in the same setting: as for TASTKNEMVGYDMGATRCDFTLSK [C7E], the figure is 4.44; as for TASTKNKMVGYDMGATRCDFTLSK [C7K], 3.18.
Still for that read-out and setting: the figure for TASTKNTMVGYDMGATRCDFTLSK [C7T] is 3.24; for TASTKNRMVGYDMGATRCDFTLSK [C7R] it is 3.26; for TASTKNGMVGYDMGATRCDFTLSK [C7G] it is 3.75.
Regarding TASTKNFMVGYDMGATRCDFTLSK [C7F], the protein stability index worked out at 3.21.
TASTKNQMVGYDMGATRCDFTLSK [C7Q]: the protein stability index turned out to be 3.69.
The same measure, in the same setting: the figure for TASTKNLMVGYDMGATRCDFTLSK [C7L] is 3.27.
TASTKNIMVGYDMGATRCDFTLSK [C7I]: the protein stability index was determined as 3.11.
Still for that read-out and setting: the figure for TASTKNWMVGYDMGATRCDFTLSK [C7W] is 2.99; for TASTKNCKVGYDMGATRCDFTLSK [M8K] it is 3.26.
On the same count and under the same terms, as for TASTKNCTVGYDMGATRCDFTLSK [M8T], the figure is 2.42; as for TASTKNCLVGYDMGATRCDFTLSK [M8L], 2.14; as for TASTKNCYVGYDMGATRCDFTLSK [M8Y], 2.22.
Take TASTKNCCVGYDMGATRCDFTLSK [M8C]: the protein stability index worked out at 1.77.
Same read-out and setting: the figure for TASTKNCRVGYDMGATRCDFTLSK [M8R] is 1.35; for TASTKNCEVGYDMGATRCDFTLSK [M8E] it is 4.05.
Same read-out and setting: the figure for TASTKNCPVGYDMGATRCDFTLSK [M8P] is 2.06; for TASTKNCGVGYDMGATRCDFTLSK [M8G] it is 2.08; for TASTKNCFVGYDMGATRCDFTLSK [M8F] it is 2.73.
On the same count and under the same terms, as for TASTKNCHVGYDMGATRCDFTLSK [M8H], the figure is 2.76; as for TASTKNCQVGYDMGATRCDFTLSK [M8Q], 2.62; as for TASTKNCIVGYDMGATRCDFTLSK [M8I], 1.62.
TASTKNCVVGYDMGATRCDFTLSK [M8V]: the protein stability index is 2.03.
For the variant TASTKNCAVGYDMGATRCDFTLSK [M8A], the protein stability index was found to be 1.88.
TASTKNCDVGYDMGATRCDFTLSK [M8D]: the protein stability index stood at 4.13.
The same measure, in the same setting: the figure for TASTKNCNVGYDMGATRCDFTLSK [M8N] is 3.95; for TASTKNCSVGYDMGATRCDFTLSK [M8S] it is 2.48; for TASTKNCWVGYDMGATRCDFTLSK [M8W] it is 2.15.
Same read-out and setting: the figure for TASTKNCMHGYDMGATRCDFTLSK [V9H] is 2.3.
Still for that read-out and setting: the figure for TASTKNCMCGYDMGATRCDFTLSK [V9C] is 2.31; for TASTKNCMLGYDMGATRCDFTLSK [V9L] it is 2.05.
Take TASTKNCMAGYDMGATRCDFTLSK [V9A]: the protein stability index came to 2.62.
Consider TASTKNCMPGYDMGATRCDFTLSK [V9P], for which the protein stability index amounted to 2.89.
TASTKNCMGGYDMGATRCDFTLSK [V9G]: the protein stability index is 3.52.
Still for that read-out and setting: as for TASTKNCMMGYDMGATRCDFTLSK [V9M], the figure is 2.42; as for TASTKNCMFGYDMGATRCDFTLSK [V9F], 1.63; as for TASTKNCMEGYDMGATRCDFTLSK [V9E], 3.33.
Still for that read-out and setting: as for TASTKNCMIGYDMGATRCDFTLSK [V9I], the figure is 2.49.
As for TASTKNCMDGYDMGATRCDFTLSK [V9D], the protein stability index worked out at 3.58.
On the same count and under the same terms, the figure for TASTKNCMKGYDMGATRCDFTLSK [V9K] is 2.12; for TASTKNCMNGYDMGATRCDFTLSK [V9N] it is 2.81.

The next data set covers variants of B2. Described as above. Particulars: c terminus: a fixed tail appended.
HDDGYMICCDKCSVWQHIDCMGIC [D24C]: the protein stability index is 2.68.
As for HDDGYMICCDKCSVWQHIDCMGIY [D24Y], the protein stability index worked out at 1.61.
As to HDDGYMICCDKCSVWQHIDCMGIH [D24H], the protein stability index was determined as 2.29.
As to HDDGYMICCDKCSVWQHIDCMGIT [D24T], the protein stability index is 1.94.
Still for that read-out and setting: as for HDDGYMICCDKCSVWQHIDCMGIR [D24R], the figure is 1.93; as for HDDGYMICCDKCSVWQHIDCMGIV [D24V], 2.47.
The same measure, in the same setting: as for HDDGYMICCDKCSVWQHIDCMGIG [D24G], the figure is 2.19.
Same read-out and setting: the figure for HDDGYMICCDKCSVWQHIDCMGIF [D24F] is 1.89.
Turning to HDDGYMICCDKCSVWQHIDCMGIN [D24N], the protein stability index amounted to 2.09.
Regarding HDDGYMICCDKCSVWQHIDCMGIL [D24L], the protein stability index came to 2.79.
Still for that read-out and setting: the figure for HDDGYMICCDKCSVWQHIDCMGIK [D24K] is 2.13; for HDDGYMICCDKCSVWQHIDCMGII [D24I] it is 2.21; for HDDGYMICCDKCSVWQHIDCMGIP [D24P] it is 2.
On the same count and under the same terms, the figure for HDDGYMICCDKCSVWQHIDCMGIA [D24A] is 2.17; for HDDGYMICCDKCSVWQHIDCMGIE [D24E] it is 2.46; for HDDGYMICCDKCSVWQHIDCMGIW [D24W] it is 1.49.
Still for that read-out and setting: as for HDDGYMICCDKCSVWQHIDCMGIS [D24S], the figure is 2.35; as for HDDGYMICCDKCSVWQHIDCMGIQ [D24Q], 2.47.
Take HDDGYMICCDKCSVWQHIDCMGIM [D24M]: the protein stability index was 1.56.
The same measure, in the same setting: the figure for HDDGYMICCDKCSVWQHIDCMGVD [I23V] is 2.95.
Same read-out and setting: the figure for HDDGYMICCDKCSVWQHIDCMGQD [I23Q] is 2.89; for HDDGYMICCDKCSVWQHIDCMGYD [I23Y] it is 2.34; for HDDGYMICCDKCSVWQHIDCMGWD [I23W] it is 1.77.
Turning to HDDGYMICCDKCSVWQHIDCMGTD [I23T], the protein stability index turned out to be 2.85.
The same measure, in the same setting: as for HDDGYMICCDKCSVWQHIDCMGSD [I23S], the figure is 2.58; as for HDDGYMICCDKCSVWQHIDCMGRD [I23R], 2.83.
